Source: article PMC10397247
Each block holds one binder with its values, some of them ahead of it.

Experiments:
O8-bA = biological target: T1, O8-bA; test: two-hybrid library CCNG1;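 also: natural log of median RNA to DNA barcode read ratio; higher means stronger binding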
T1 chain: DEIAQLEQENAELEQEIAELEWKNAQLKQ

O3-bA = biological target: T2, O3-bA; test: two-hybrid library CCNG1;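 also: natural log of median RNA to DNA barcode read ratio; higher means stronger binding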
T2 chain: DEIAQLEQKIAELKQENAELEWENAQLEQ

O9-bA = biological target: T3, O9-bA; test: two-hybrid library CCNG1;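 also: natural log of median RNA to DNA barcode read ratio; higher means stronger binding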
T3 chain: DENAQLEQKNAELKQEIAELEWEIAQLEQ

O4-bA = biological target: T4, O4-bA; test: two-hybrid library CCNG1;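 also: natural log of median RNA to DNA barcode read ratio; higher means stronger binding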
T4 chain: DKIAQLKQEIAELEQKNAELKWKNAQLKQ

O7-bA = biological target: T5, O7-bA; test: two-hybrid library CCNG1;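 also: natural log of median RNA to DNA barcode read ratio; higher means stronger binding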
T5 chain: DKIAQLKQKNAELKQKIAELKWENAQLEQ

O6-bA = biological target: T6, O6-bA; test: two-hybrid library CCNG1;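 also: natural log of median RNA to DNA barcode read ratio; higher means stronger binding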
T6 chain: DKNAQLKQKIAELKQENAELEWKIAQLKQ

O5-bA = biological target: T7, O5-bA; test: two-hybrid library CCNG1
T7 chain: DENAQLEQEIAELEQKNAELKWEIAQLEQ

O16-bA = biological target: T8, O16-bA; test: two-hybrid library CCNG1
T8 chain: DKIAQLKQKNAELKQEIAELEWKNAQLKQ

O2-bA = biological target: T9, O2-bA; test: two-hybrid library CCNG1
T9 chain: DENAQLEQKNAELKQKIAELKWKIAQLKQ

4H967-bH = biological target: T10, 4H967-bH; test: two-hybrid library CCNG1
T10 chain: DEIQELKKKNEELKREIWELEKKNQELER

4H883-bH = biological target: T11, 4H883-bH; test: two-hybrid library CCNG1
T11 chain: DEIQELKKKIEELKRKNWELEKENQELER

4H855-bH = biological target: T12, 4H855-bH; test: two-hybrid library CCNG1
T12 chain: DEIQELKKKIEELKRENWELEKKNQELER

4H918-bH = biological target: T13, 4H918-bH; test: two-hybrid library CCNG1
T13 chain: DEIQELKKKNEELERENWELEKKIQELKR

4H968-bH = biological target: T14, 4H968-bH; test: two-hybrid library CCNG1
T14 chain: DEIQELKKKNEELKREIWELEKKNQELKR

4H953-bH = biological target: T15, 4H953-bH; test: two-hybrid library CCNG1
T15 chain: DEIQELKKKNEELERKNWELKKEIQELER

4H797-bH = biological target: T16, 4H797-bH; test: two-hybrid library CCNG1
T16 chain: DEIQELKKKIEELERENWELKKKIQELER

4H908-bH = biological target: T17, 4H908-bH; test: two-hybrid library CCNG1
T17 chain: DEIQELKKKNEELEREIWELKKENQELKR

4H3605-AA = biological target: T18, 4H3605-AA; test: two-hybrid library CCmax; conditions: mean of both orientations
T18 chain: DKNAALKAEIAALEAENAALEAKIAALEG

4H3922-AA = biological target: T19, 4H3922-AA; test: two-hybrid library CCmax; conditions: mean of both orientations
T19 chain: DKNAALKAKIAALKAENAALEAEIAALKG

4H2608-AA = biological target: T20, 4H2608-AA; test: two-hybrid library CCmax; conditions: mean of both orientations
T20 chain: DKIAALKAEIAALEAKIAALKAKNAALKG

4H662-AA = biological target: T21, 4H662-AA; test: two-hybrid library CCmax; conditions: mean of both orientations
T21 chain: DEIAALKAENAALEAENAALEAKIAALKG

4H2935-AA = biological target: T22, 4H2935-AA; test: two-hybrid library CCmax; conditions: mean of both orientations
T22 chain: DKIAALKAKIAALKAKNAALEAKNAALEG

4H55-AA = biological target: T23, 4H55-AA; test: two-hybrid library CCmax
T23 chain: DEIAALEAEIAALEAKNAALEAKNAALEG

4H2513-AA = biological target: T24, 4H2513-AA; test: two-hybrid library CCmax
T24 chain: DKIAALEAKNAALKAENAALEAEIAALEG

4H369-AA = biological target: T25, 4H369-AA; test: two-hybrid library CCmax; conditions: mean of both orientations
T25 chain: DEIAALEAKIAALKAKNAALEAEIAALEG

4H2726-AA = biological target: T26, 4H2726-AA; test: two-hybrid library CCmax; conditions: mean of both orientations
T26 chain: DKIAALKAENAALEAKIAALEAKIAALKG

4H4033-AA = biological target: T27, 4H4033-AA; test: two-hybrid library CCmax; conditions: mean of both orientations
T27 chain: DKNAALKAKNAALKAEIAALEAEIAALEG

4H3664-AA = biological target: T28, 4H3664-AA; test: two-hybrid library CCmax; conditions: mean of both orientations
T28 chain: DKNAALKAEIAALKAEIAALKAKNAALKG

4H2536-AA = biological target: T29, 4H2536-AA; test: two-hybrid library CCmax
T29 chain: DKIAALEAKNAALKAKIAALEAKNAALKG

4H2614-AA = biological target: T30, 4H2614-AA; test: two-hybrid library CCmax; conditions: mean of both orientations
T30 chain: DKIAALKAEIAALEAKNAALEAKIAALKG

4H3625-AA = biological target: T31, 4H3625-AA; test: two-hybrid library CCmax; conditions: mean of both orientations
T31 chain: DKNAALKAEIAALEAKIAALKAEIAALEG

4H327-AA = biological target: T32, 4H327-AA; test: two-hybrid library CCmax; conditions: mean of both orientations
T32 chain: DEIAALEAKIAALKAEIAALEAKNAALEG

4H481-AA = biological target: T33, 4H481-AA; test: two-hybrid library CCmax; conditions: mean of both orientations
T33 chain: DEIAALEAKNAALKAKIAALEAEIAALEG

APC6088-AA = biological target: T34, APC6088-AA; test: two-hybrid library CCmax; conditions: mean of both orientations
T34 chain: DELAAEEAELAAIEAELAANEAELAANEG

APC2724-AA = biological target: T35, APC2724-AA; test: two-hybrid library CCmax
T35 chain: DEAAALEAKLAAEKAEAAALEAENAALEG

APC3265-AA = biological target: T36, APC3265-AA; test: two-hybrid library CCmax; conditions: mean of both orientations
T36 chain: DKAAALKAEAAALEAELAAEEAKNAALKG

APC9141-AA = biological target: T37, APC9141-AA; test: two-hybrid library CCmax; conditions: mean of both orientations
T37 chain: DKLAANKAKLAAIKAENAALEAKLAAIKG

APC9291-AA = biological target: T38, APC9291-AA; test: two-hybrid library CCmax; conditions: mean of both orientations
T38 chain: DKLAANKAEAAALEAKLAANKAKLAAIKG

APC5531-AA = biological target: T39, APC5531-AA; test: two-hybrid library CCmax; conditions: mean of both orientations
T39 chain: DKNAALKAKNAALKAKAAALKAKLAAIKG

APC9806-AA = biological target: T40, APC9806-AA; test: two-hybrid library CCmax; conditions: mean of both orientations
T40 chain: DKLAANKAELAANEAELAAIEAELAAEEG

APC2543-AA = biological target: T41, APC2543-AA; test: two-hybrid library CCmax
T41 chain: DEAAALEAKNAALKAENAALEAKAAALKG

APC2981-AA = biological target: T42, APC2981-AA; test: two-hybrid library CCmax; conditions: mean of both orientations
T42 chain: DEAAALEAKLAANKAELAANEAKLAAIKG

APC3323-AA = biological target: T43, APC3323-AA; test: two-hybrid library CCmax; conditions: mean of both orientations
T43 chain: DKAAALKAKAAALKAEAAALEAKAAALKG

APC9182-AA = biological target: T44, APC9182-AA; test: two-hybrid library CCmax; conditions: mean of both orientations
T44 chain: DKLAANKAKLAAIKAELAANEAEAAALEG

APC8516-AA = biological target: T45, APC8516-AA; test: two-hybrid library CCmax; conditions: mean of both orientations
T45 chain: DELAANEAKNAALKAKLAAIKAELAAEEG

APC2811-AA = biological target: T46, APC2811-AA; test: two-hybrid library CCmax; conditions: mean of both orientations
T46 chain: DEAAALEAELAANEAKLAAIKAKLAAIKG

APC4100-AA = biological target: T47, APC4100-AA; test: two-hybrid library CCmax; conditions: mean of both orientations
T47 chain: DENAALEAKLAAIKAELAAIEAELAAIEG

APC4336-AA = biological target: T48, APC4336-AA; test: two-hybrid library CCmax; conditions: mean of both orientations
T48 chain: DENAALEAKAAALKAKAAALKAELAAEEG

APC3881-AA = biological target: T49, APC3881-AA; test: two-hybrid library CCmax; conditions: mean of both orientations
T49 chain: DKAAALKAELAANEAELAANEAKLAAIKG

APC7524-AA = biological target: T50, APC7524-AA; test: two-hybrid library CCmax; conditions: mean of both orientations
T50 chain: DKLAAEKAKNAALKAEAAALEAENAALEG

APC3354-AA = biological target: T51, APC3354-AA; test: two-hybrid library CCmax; conditions: mean of both orientations
T51 chain: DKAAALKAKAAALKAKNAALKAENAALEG

APC2556-AA = biological target: T52, APC2556-AA; test: two-hybrid library CCmax; conditions: mean of both orientations
T52 chain: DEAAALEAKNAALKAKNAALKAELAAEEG

APC542-AA = biological target: T53, APC542-AA; test: two-hybrid library CCmax; conditions: mean of both orientations
T53 chain: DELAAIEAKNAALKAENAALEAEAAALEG

APC5009-AA = biological target: T54, APC5009-AA; test: two-hybrid library CCmax; conditions: mean of both orientations
T54 chain: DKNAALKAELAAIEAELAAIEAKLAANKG

APC8401-AA = biological target: T55, APC8401-AA; test: two-hybrid library CCmax; conditions: mean of both orientations
T55 chain: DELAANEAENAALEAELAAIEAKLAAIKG

interaction score (O8-bA): 1.35 | interaction score (O3-bA): -0.599 | interaction score (O9-bA): -1.22 | interaction score (O4-bA): -0.54 | interaction score (O7-bA): 1.33 | interaction score (O6-bA): 1.4 | interaction score (O5-bA): -1.16 | interaction score (O16-bA): -0.811 | interaction score (O2-bA): -0.141
Binder: DKIAQLKQKNAELKQEIAELEWKNAQLKQ [O16-bA]

interaction score (4H967-bH): 0.229 | interaction score (4H883-bH): 0.639 | interaction score (4H855-bH): -1.17 | interaction score (4H918-bH): 0.24 | interaction score (4H968-bH): -0.0614 | interaction score (O16-bA): -0.174 | interaction score (4H953-bH): -0.0525 | interaction score (4H797-bH): -0.311 | interaction score (4H908-bH): -0.915
Binder: DEIQELKKKIEELERENWELKKKIQELER [4H797-bH]

interaction score (4H3605-AA): -1.25 | interaction score (4H3922-AA): -1.74 | interaction score (4H2608-AA): -1.07 | interaction score (4H662-AA): 1.22 | interaction score (4H2935-AA): -2.01 | interaction score (4H55-AA): -1.88 | interaction score (4H2513-AA): -1.49 | interaction score (4H369-AA): -1.79 | interaction score (4H2726-AA): 0.913 | interaction score (4H4033-AA): -1.46 | interaction score (4H3664-AA): -1.85 | interaction score (4H2536-AA): -0.747 | interaction score (4H2614-AA): 0.461 | interaction score (4H3625-AA): -2 | interaction score (4H327-AA): -1.74 | interaction score (4H481-AA): -1.36
Binder: DKIAALEAKNAALKAENAALEAEIAALEG [4H2513-AA]

interaction score (APC6088-AA): -1.87 | interaction score (APC2724-AA): -1.16 | interaction score (APC3265-AA): -1.58 | interaction score (APC9141-AA): -1.6 | interaction score (APC9291-AA): -1.67 | interaction score (APC5531-AA): -1.8 | interaction score (APC9806-AA): -1.56 | interaction score (APC2543-AA): -1.71 | interaction score (APC2981-AA): -1.4 | interaction score (APC3323-AA): -1.36 | interaction score (APC9182-AA): -1.84 | interaction score (APC8516-AA): -1.7 | interaction score (APC2811-AA): -1.54 | interaction score (APC4100-AA): -1.65 | interaction score (APC4336-AA): -1.73 | interaction score (APC3881-AA): -1.22 | interaction score (APC7524-AA): -1.63 | interaction score (APC3354-AA): -1.72 | interaction score (APC2556-AA): -1.67 | interaction score (APC542-AA): -1.65 | interaction score (APC5009-AA): -1.04 | interaction score (APC8401-AA): -1.23
Binder: DEAAALEAKNAALKAENAALEAKAAALKG [APC2543-AA]
